18 molecules from patent US20140336110A1 can be followed below.

Starred links: 1 amine or outer side, 2 acyl side, 3 side chain; linkers in the order of their positions; H or OH if unused. Non-standard residues stand in square brackets, D forms with d. Primed or numbered codes have the meaning given here. No end group written: not given here. *: point of attachment. PEG12 = NCCOCCOCCOCCOCCOCCOCCOCCOCCOCCOCCOCCOCCC(=O)O; Oic = O=C(O)[C@@H]1C[C@@H]2CCCC[C@@H]2N1; Dip = N[C@H](C(=O)O)C(c1ccccc1)c1ccccc1; Ida″ = O=C(CN(CC(=O)[*:3])[*:1])[*:2]; Palmitoyl = CCCCCCCCCCCCCCCC(=O)*; β3hF = N[C@H](CC(=O)O)Cc1ccccc1; NMeD = CN[C@@H](CC(=O)O)C(=O)O; β3hP = O=C(O)C[C@@H]1CCCN1; Ach = not defined here; Dpa = not defined here

The target of assay [1] is ferroportin tagged at the C-terminus with green fluorescent protein [GFP: P42212]. The assay can be described thus: cell-based or functional assay.
Assay [2] has the same target. The assay can be described thus: cell-based or functional assay. This is another data set of the same source.

B1: PR57 (peptide)
peptide: [NMeD]TH[Dpa][β3hP]RCR[β3hF]
modifications: reading uncertain; also: R14 = Palmitoyl-PEG-miniPEG3- substituent, attachment not placed
B1 returned an EC50 (nM) in vitro in assay [1] of 2 nM.

B2: PR52 (peptide)
peptide: {Palmitoyl-PEG12}-FLCLP[Dip]HTD
modifications: not fully specified (C-terminus); printed as R4-F-L-C-L-P-Dpa-H-T-D; also: retroinverted, D residues underlined, underlining lost
In assay [1], B2 displayed an EC50 (nM) in vitro of under 10 nM.

B3: PR49 (peptide)
peptide: {Palmitoyl-PEG12}-FICIP[Dip]H
modifications: not fully specified (C-terminus); printed as R4-F-I-C-I-P-Dpa-H; also: retroinverted, D residues underlined, underlining lost
B3 came in with an EC50 (nM) in vitro in assay [1] of under 10 nM.

B4: PR56 (peptide)
peptide: [NMeD]TH[Dpa][Oic]RCR[β3hF]
modifications: reading uncertain; also: R14 = Palmitoyl-PEG-miniPEG3- substituent, attachment not placed
In the case of B4, the EC50 (nM) in vitro in assay [1] is 15 nM.

B5: PR48 (peptide)
peptide: {Palmitoyl-PEG12}-[Dip]ICIP[Dip]HTD
modifications: not fully specified (C-terminus); printed as R4-Dpa-I-C-I-P-Dpa-H-T-D; also: retroinverted, D residues underlined, underlining lost
Turning to B5, in assay [1], the EC50 (nM) in vitro worked out at 50 nM.

B6: PR53 (peptide)
peptide: [NMeD]TH[Dpa]PICI[β3hF]
modifications: reading uncertain; also: R14 = Palmitoyl-PEG-miniPEG3- substituent, attachment not placed
In turn, B6 returned an EC50 (nM) in vitro in assay [1] of 10 nM.

B7: PR59 (peptide)
peptide: [Ida″]TH[Dpa][β3hP]ICI[β3hF]
modifications: reading uncertain; also: R14 = Palmitoyl-PEG-miniPEG3- substituent, attachment not placed
For the molecule B7, the EC50 (nM) in vitro in assay [1] was found to be 2 nM.

B8: PR47 (peptide)
peptide: {Palmitoyl-PEG12}-FICIP[Dip]HTD
modifications: not fully specified (C-terminus); printed as R4-F-I-C-I-P-Dpa-H-T-D; also: retroinverted, D residues underlined, underlining lost
Take B8: the EC50 (nM) in vitro in assay [1] is 50 nM.

B9: PR51 (peptide)
peptide: {Palmitoyl-PEG12}-FVCVP[Dip]HTD
modifications: not fully specified (C-terminus); printed as R4-F-V-C-V-P-Dpa-H-T-D; also: retroinverted, D residues underlined, underlining lost
Molecule B9 showed an EC50 (nM) in vitro in assay [1] of 100 nM.

B10: Hep25 F9A (peptide)
peptide: DTHFPICIACCGCCHRSKCGMCCKT
The molecule B10 yielded a relative hepcidin activity (FIG. 1) in assay [2] of over 70 % decrease.

B11: PR55 (peptide)
peptide: [NMeD]TH[Dpa]P[Ach]C[Ach]F
modifications: reading uncertain; also: R14 = Palmitoyl-PEG-miniPEG3- substituent, attachment not placed
Turning to B11, in assay [1], the EC50 (nM) in vitro amounted to 10 nM.

B12: Hep9 (Hep1-9) (peptide)
peptide: DTHFPICIF-NH2
For the molecule B12, in assay [2], the potency against Hep25 on a mass basis, flow-cytometry assay of ferroportin-GFP internalization (times less potent than Hep25) was 4 and the potency against Hep25 on a molar basis, flow-cytometry assay of ferroportin-GFP internalization (times less potent than Hep25) is 10.

B13: Hep25 F4A (peptide)
peptide: DTHAPICIFCCGCCHRSKCGMCCKT
B13 showed a relative hepcidin activity (FIG. 1) in assay [2] of over 70 % decrease.

B14: Hep10 (Hep1-10 C7A) (peptide)
peptide: DTHFPIAIFC-NH2
Turning to B14, in assay [2], the potency against Hep25 on a mass basis, flow-cytometry assay of ferroportin-GFP internalization (times less potent than Hep25) was found to be 4 and the potency against Hep25 on a molar basis, flow-cytometry assay of ferroportin-GFP internalization (times less potent than Hep25) came out at 10.

B15: PR50 (peptide)
peptide: {Palmitoyl-PEG12}-[Dip]ICIP[Dip]H
modifications: not fully specified (C-terminus); printed as R4-Dpa-I-C-I-P-Dpa-H; also: retroinverted, D residues underlined, underlining lost
For B15, the EC50 (nM) in vitro in assay [1] was under 10 nM.

B16: PR60 (peptide)
peptide: [Ida″]TH[Dpa]P[Ach]C[Ach]F
modifications: reading uncertain; also: R14 = Palmitoyl-PEG-miniPEG3- substituent, attachment not placed
Take B16: the EC50 (nM) in vitro in assay [1] is 3 nM.

B17: PR58 (peptide)
peptide: [Ida″]TH[Dpa]PICI[β3hF]
modifications: reading uncertain; also: R14 = Palmitoyl-PEG-miniPEG3- substituent, attachment not placed
For B17, in assay [1], the EC50 (nM) in vitro was found to be 1 nM.

B18: PR54 (peptide)
peptide: [NMeD]TH[Dpa][β3hP]ICI[β3hF]
modifications: reading uncertain; also: R14 = Palmitoyl-PEG-miniPEG3- substituent, attachment not placed
In assay [1], B18 returned an EC50 (nM) in vitro of 10 nM.
